Tests used:
[1] = target: T1, Biotinylated human ICOS protein (human, UniProt Q9Y6W8 21-140, limits assumed, biotinylated (sites not given)); experiment: SPR ProteOn avidity format, biotinylated human ICOS on NLC chip, antibody analyte, 25 C
T1 construct: Captured on the NLC chip in the avidity SPR
T1 sequence: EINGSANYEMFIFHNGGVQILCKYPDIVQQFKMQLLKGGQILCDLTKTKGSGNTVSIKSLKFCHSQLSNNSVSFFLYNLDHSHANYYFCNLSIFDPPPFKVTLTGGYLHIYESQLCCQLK
Procedure: (§1) Biotinylated human ICOS protein diluted at 7.5 μg/mL in running buffer (1× HBS-EP+ Buffer Technova, cat. No. H8022) was captured on a NLC sensor chip (Bio-Rad, cat No 1765021). The surface was then blocked using biocytin (Sigma Aldrich, cat No B1758) at 1 mg/mL.
(§2) The assay was carried out at 25° C.
(§3) The buffer injection (i.e. 0 nM) was used to double reference the sensorgrams. The analysis was carried out using the equilibrium model inherent to the ProteOn's analysis software for each mAb² construct.

[2] = target: T1, Biotinylated human ICOS protein; experiment: SPR ProteOn avidity format, biotinylated human ICOS on NLC chip, antibody analyte; apparent KD from equilibrium, 25 C
Procedure: as §1, §2, §3

[3] = target: T1, Biotinylated human ICOS protein; experiment: SPR ProteOn avidity format, biotinylated human ICOS on NLC chip; calculated on-rate
Procedure: as §1, §2
The buffer injection (i.e. 0 nM) was used to double reference the sensorgrams. […]

B1: STIM003_289_LAGA (bispecific antibody, V domains shown, not shown: a dimerising Fc or GST)
VH: EVQLVESGGGVVRPGGSLRLSCVASGVTFDDYGMSWVRQAPGKGLEWVSGINWNGGDTDYSDSVKGRFTISRDNAKNSLYLQMNSLRAEDTALYYCARDFYGSGSYYHVPFDYWGQGILVTVSS
VL: EIVLTQSPGTLSLSPGERATLSCRASQSVSRSYLAWYQQKRGQAPRLLIYGASSRATGIPDRFSGDGSGTDFTLSISRLEPEDFAVYYCHQYDMSPFTFGPGTKVDIK
notes: LAGA variant of STIM003_289
koff [1]: 0.000278 s⁻¹
Kd [2]: 0.6 nM
kon [3]: 477000 M⁻¹ s⁻¹

B2: STIM003_457_LAGA (bispecific antibody, V domains shown, not shown: a dimerising Fc or GST)
VH: EVQLVESGGGVVRPGGSLRLSCVASGVTFDDYGMSWVRQAPGKGLEWVSGINWNGGDTDYSDSVKGRFTISRDNAKNSLYLQMNSLRAEDTALYYCARDFYGSGSYYHVPFDYWGQGILVTVSS
VL: EIVLTQSPGTLSLSPGERATLSCRASQSVSRSYLAWYQQKRGQAPRLLIYGASSRATGIPDRFSGDGSGTDFTLSISRLEPEDFAVYYCHQYDMSPFTFGPGTKVDIK
notes: LAGA variant of STIM003_457
koff [1]: 0.000232 s⁻¹
Kd [2]: 0.8 nM
kon [3]: 284000 M⁻¹ s⁻¹

B3: STIM001_289_LAGA (bispecific antibody, V domains shown, not shown: a dimerising Fc or GST)
VH: QVQVVQSGAEVKKPGASVKVSCKASGYTFSTFGITWVRQAPGQGLEWMGWISAYNGDTNYAQNLQGRVIMTTDTSTSTAYMELRSLRSDDTAVYYCARSSGHYYYYGMDVWGQGTTVTVSS
VL: DIVMTQSPLSLPVTPGEPASISCRSSQSLLHSNEYNYLDWYLQKPGQSPQLLIFLGSNRASGVPDRFSGSGSGTDFTLKITRVEAEDVGIYYCMQSLQTPLTFGGGTKVEIK
koff [1]: 0.000354 s⁻¹
Kd [2]: 25.4 nM
kon [3]: 13900 M⁻¹ s⁻¹

B4: STIM001_457_LAGA (bispecific antibody, V domains shown, not shown: a dimerising Fc or GST)
VH: QVQVVQSGAEVKKPGASVKVSCKASGYTFSTFGITWVRQAPGQGLEWMGWISAYNGDTNYAQNLQGRVIMTTDTSTSTAYMELRSLRSDDTAVYYCARSSGHYYYYGMDVWGQGTTVTVSS
VL: DIVMTQSPLSLPVTPGEPASISCRSSQSLLHSNEYNYLDWYLQKPGQSPQLLIFLGSNRASGVPDRFSGSGSGTDFTLKITRVEAEDVGIYYCMQSLQTPLTFGGGTKVEIK
notes: LAGA variant of STIM001_457
koff [1]: 0.000332 s⁻¹
Kd [2]: 10.6 nM
kon [3]: 31300 M⁻¹ s⁻¹
